The values that follow come from patent publication US20110008375A1, “Uses of Myostatin Antagonists” (AMGEN INC., priority 2005, published 2011).

Substitutions are numbered along the chain they refer to.

The chains are these.
T1: myostatin (Homo sapiens, UniProt O14793)
T1 construct: To produce mature myostatin, the pooled promyostatin was enzymatically cleaved between the propeptide and mature myostatin C terminal; made in house; host or cells: E. coli K-12 strain 2596 (ATCC # 202174)
T1 sequence (O14793 267-375): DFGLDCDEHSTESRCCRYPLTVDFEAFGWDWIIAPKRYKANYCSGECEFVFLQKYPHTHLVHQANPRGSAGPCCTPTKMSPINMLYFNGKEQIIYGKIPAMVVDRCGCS

B1: 2x mTN8-19-7: affinity matured 2× peptibody (two peptides in tandem), TN8-19 family, human Fc (protein)
chain: GGGGGAQLADHGQCIRWPWMCPPEGWELEGSGSATGGSGSTASSGSGSATGLADHGQCIRWPWMCPPEGWELE
modifications: Peptibody
B2: 2x mTN8-19-33: affinity matured 2× peptibody of the TN8-19 family, human Fc (protein)
chain: GGGGGAQPESQGHCTRWPWMCPPQGWGLEGSGSATGGSGSTASSGSGSATGPESQGHCTRWPWMCPPQGWGLE
modifications: Peptibody
B3: ActRIIB/Fc: soluble receptor fusion protein actRIIB/Fc (R&D Systems), recombinant human activin receptor IIB/Fc chimera (protein)
chain: SGRGEAETRECIYYNANWELERTNQSGLERCEGEQDKRLHCYASWRNSSGTIELVKKGCWLDDFNCYDRQECVATEENPQVYFCCCEGNFCNERFTHLPEAGGPEVTYEPPPTAPT
modifications: left off: a dimerising Fc or GST
B4: 2xmTN8-19-7 (protein)
chain: B1 chain
modifications: Peptibody
B5: 2xmTN8-19-22 (protein)
chain: B2 chain with P8T, E9F, P52T, E53F
modifications: Peptibody
B6: 2xmTN8-19-21 (protein)
chain: B2 chain with P8S, S10Y, H13L, G27K, P52S, S54Y, H57L, G71K
modifications: Peptibody
B7: 2×mTN8-19-22: affinity matured 2× peptibody of the TN8-19 family, human Fc (protein)
chain: B2 chain with P8T, E9F, P52T, E53F

The first data set relates to CD1 nu/nu mice. The data set is described as follows: In vivo anabolic activity in CD1 nu/nu mouse model. The following applies: CD1 nu/nu male mice; 1 and 3 mg/kg twice weekly, 35 days; 2× vs 1× peptibody or control. The source says:
The CD1 nu/nu mouse model (Charles River Laboratories, Massachusettes) was used to determine the in vivo efficacy of the peptibodies of the present invention which included the human Fc region (huFc). This model responded to the inhibitors of the present invention with a rapid anabolic response which was associated with increased dry muscle mass and an increase in myofibrillar proteins but was not associated with accumulation in body water content.
A group of 10 8 week old CD1 nu/nu mice were treated twice weekly or once weekly with dosages of 1 mg/kg, 3 mg/kg and 10 mg/kg (subcutaneous injection). The control group of 10 8 week old CD1 nu/nu mice received a twice weekly (subcutaneous) injection of huFc (vehicle) at 10 mg/kg. The animals were weighed every other day and lean body mass determined by NMR on day 0 and day 13. The animals are then sacrificed at day 14 and the size of the gastrocnemius muscle determined.
In another example, the 1×mTN8-19-32 peptibody was administered to CD1 nu/nu mice in a biweekly injection of 1 mg/kg, 3 mg/kg, 10 mg/kg, and 30 mg/kg compared with the huFc control (vehicle).
CD1 nu/nu male mice (10 animals per group) were treated with twice weekly injections of 1 mg/kg and 3 mg/kg of 1×mTN8-19-7 and 2×mTN8-19-7 for 35 days, while the control group (10 animals) received twice weekly injections of huFc (3 mg/kg).
In the case of B1, the “body weight gain (FIG. 5)” value is “greater body weight gain” and the “lean carcass weight at necropsy (FIG. 5)” value is “greater”.

The subject of the next data set is C57B1/6 mice. The data set is described as follows: Gripping strength in normal C57B1/6 mice. The following applies: 30 days s.c. 5 mg/kg per week, measured day 18 of recovery. In kind it is in vivo, mouse. The protocol:
The animals were allowed to recover without any further injections. Gripping strength was measured on day 18 of the recovery period. Griping strength was measured using a Columbia Instruments meter, model 1027 dsm (Columbus, Ohio).
B1: the “increase in gripping strength compared with control-treated mice” value is reported as 15%.

As for B2, the “increase in gripping strength compared with control-treated mice” value came out at 14%.

For the next data set, the target named is T1, myostatin. The data set is described as follows: BIAcore affinity analysis on immobilized myostatin. In kind it is binding. The following applies: Biacore assay; Table III. The procedure: An affinity analysis of each candidate myostatin peptibody was performed on a BIAcore®3000 (Biacore, Inc., Piscataway, N.J.), apparatus using sensor chip CM5, and 0.005 percent P20 surfactant (Biacore, Inc.) as running buffer.
Direct binding assays were used to screen and rank the peptibodies in order of their ability to bind to immobilized myostatin. Binding assays were carried by injection of two concentrations (40 and 400 nM) of each candidate myostatin-binding peptibody to the immobilized myostatin surface at a flow rate of 50 μl/min for 3 minutes. After a dissociation time of 3 minutes, the surface was regenerated. Binding curves were compared qualitatively for binding signal intensity, as well as for dissociation rates. Peptibody binding kinetic parameters including ka (association rate constant), kd (dissociation rate constant) and KD (dissociation equilibrium constant) were determined using the BIA evaluation 3.1 computer program (Biacore, Inc.). The lower the dissociation equilibrium constants (expressed in nM), the greater the affinity of the peptibody for myostatin.
On the technique in general: In SPR one partner is held on a chip, and binding of the other changes the refractive index at the surface.
As a reminder, the Kd is the concentration at which binding is half-saturated. High values mean a looser complex, low ones a tighter complex. Molecule B3 returned a dissociation constant Kd of around 7 nM.

Another data set deals with T1, myostatin. The data set is described as follows: C2C12 pMARE-luc cell based myostatin activity assay.
Settings: not given
An excerpt:
A myostatin-responsive reporter cell line was generated by transfection of C2C12 myoblast cells (ATCC No: CRL-1772) with a pMARE-luc construct. The pMARE-luc construct was made by cloning twelve repeats of the CAGA sequence, representing the myostatin/activin response elements (Dennler et al. EMBO 17: 3091-3100 (1998)) into a pLuc-MCS reporter vector (Stratagene cat #219087) upstream of the TATA box. The myoblast C2C12 cells naturally express myostatin/activin receptors on its cell surface. When myostatin binds the cell receptors, the Smad pathway is activated, and phosphorylated Smad binds to the response element (Macias-Silva et al. Cell 87:1215 (1996)), resulting in the expression of the lucerase gene. Luciferase activity is then measured using a commercial luciferase reporter assay kit (cat #E4550, Promega, Madison, Wis.) according to manufacturer's protocol. A stable line of C2C12 cells that had been transfected with pMARE-luc (C2C12/pMARE clone #44) was used to measure myostatin activity according to the following procedure.
Equal numbers of the reporter cells (C2C12/pMARE clone #44) were plated into 96 well cultures. A first round screening using two dilutions of peptibodies was performed with the myostatin concentration fixed at 4 nM. Recombinant mature myostatin was pre-incubated for 2 hours at room temperature with peptibodies at 40 nM and 400 nM respectively. The reporter cell culture was treated with the myostatin with or without peptibodies for six hours. Myostatin activity was measured by determining the luciferase activity in the treated cultures. This assay was used to initially identify peptibody hits that inhibited the myostatin signaling activity in the reporter assay. Subsequently, a nine point titration curve was generated with the myostatin concentration fixed at 4 nM. The myostatin was preincubated with each of the following nine concentrations of peptibodies: […], 0.4 nM, 4 nM, 20 nM, 40 nM, 200 nM, 400 nM, 2 uM and 4 uM for two hours before adding the mixture to the reporter cell culture. The IC50 values were for a number of exemplary peptibodies are provided in Tables III and for affinity matured peptibodies, in Table VIII.
In the case of “L2: peptibody: peptide MEMLDSLFELLKDMVPISKA fused to human IgG1 Fc”, the “inhibition of myostatin activity in cell-based assay” value is given as “inhibit myostatin activity”.

The same data set, now with this note: affinity matured peptibodies; a range of values is given.
As a reminder, the IC50 is the concentration that inhibits the measured activity by half. Read a high IC50 as lower potency. mL15-7 (QVDSLQQVLLWLEHKLALGPQV) showed a half-inhibitory concentration (IC50) of 32.8 nM. That is a double-digit nanomolar value.

Consider mL15-9 (QIEMLESLLDLLRDMVPMSNAF), for which it took 354 nM to reach half-maximal inhibition (IC50).

As for mL20-2 (TQRDMSMLDGLLEVLDQLRQQR), inhibition was half-maximal at 123 nM (IC50).

As to mL20-3 (TSRDMSLLWELLEELDRLGHQR), the IC50 was found to be 158 nM.

As to mL20-4 (MQHDMSMLYGLVELLESLGHQI), the IC50 came out at 160 nM.

For mTN8-19-2 (YPEQGLCTRWPWMCPPQTLA), the IC50 was 7.51 to 34.4 nM.

As for mTN8-19-4 (MITQGQCTRWPWMCPPQPSG), the IC50 amounted to 16.7 nM.

Molecule mTN8-19-5 (AGAQEHCTRWPWMCAPNDWI) registered an IC50 of 3.5 to 7.74 nM.

For the molecule mTN8-19-6 (GVNQGQCTRWRWMCPPNGWE), the IC50 is 17.3 nM.

Turning to mTN8-19-9 (TQTHAQCTRWPWMCPPQWEG), the IC50 is 18.8 to 23 nM.

mTN8-19-10 (VVTQGHCTLWPWMCPPQRWR) had an IC50 of 5.25 to 7.4 nM.

In turn, mTN8-19-11 (IYPHDQCTRWPWMCPPQPYP) had an IC50 of 28.7 nM.

Regarding mTN8-19-12 (SYWQGQCTRWPWMCPPQWRG), 980 nM corresponded to half-maximal inhibition (IC50). This IC50 is about 34-fold higher than that of the molecule before.

Molecule mTN8-19-13 (MWQQGHCTRWPWMCPPQGWG) gave an IC50 of 20 nM. This IC50 lies about 49-fold lower than the previous one.

mTN8-19-14 (EFTQWHCTRWPWMCPPQRSQ) showed an IC50 of 4.07 to 6.56 nM.

In turn, mTN8-19-16 (YQTQGLCTRWPWMCPPQSQR) had an IC50 of 4.65 nM.

Take mTN8-19-23 (PGAHDHCTRWPWMCPPQSRY): the half-inhibitory concentration (IC50) turned out to be 6.58 nM.

In turn, mTN8-19-24 (VAEEWHCRRWPWMCPPQDWR) came in with an IC50 of 1.67 to 2.93 nM.

In turn, mTN8-19-27 (ADTQGHCTRWPWMCPPQHWF) yielded an IC50 of 4.84 to 4.92 nM.

In turn, mTN8-19-28 (SGPQGHCTRWPWMCAPQGWF) returned an IC50 of 4.39 nM. In other words, the single-digit nanomolar range.

mTN8-19-29 (TLVQGHCTRWPWMCPPQRWV) gave an IC50 of 6.36 nM. The IC50 values of the last two molecules are within 1.5-fold of each other.

mTN8-19-34 (IPAHGHCTRWPWMCPPQRWR) registered a half-inhibitory concentration (IC50) of 5.03 to 5.07 nM.

In turn, B4 showed an IC50 of 0.857 to 2.65 nM.

The molecule B5 had a half-maximal inhibitory concentration (IC50) of 0.994 to 1.22 nM.

The molecule B6 showed a half-maximal inhibitory concentration (IC50) of 0.828 to 1.43 nM.

Still in this data set, the particulars now being: pMARE luc cell-based assay; Table III.
“Linear-20: peptibody: peptide YREMSMLEGLLDVLERLQHY fused to human IgG1 Fc” returned an IC50 of around 11 nM.

“TN12-34: peptibody: peptide AHWCEQGPWRYGNICMAY fused to human IgG1 Fc” gave a concentration for half-maximal inhibition (IC50) of around 30 nM.

Test system in another data set: not listed separately
Kind of data set: In vivo pharmacokinetics in CD1 nu/nu mice. As to conditions: peptibodies without LE sequences, 10 mg/kg and 5 mg/kg. Set-up: species or system mouse. The procedure:
In vivo pharmacokinetics experiments were performed using representative peptibodies without the LE sequences. 10 mg/kg and 5 mg/kg dosages were administered to CD1 nu/nu mice and the following parameters determined. Cmax (ug/mL), area under the curve (AUC) (ug-hr/mL), and half-life (hr).
For the molecule B1, the half-life entry was “about 106 hours”.

Regarding B7, the half-life result is reported as “about 85.2 hours”.
